Target: His6-Mad2 (recombinant human Mad2) (human, UniProt Q13257 1-205)
Experiment: pull-down

Chain of His6-Mad2 (recombinant human Mad2) (Q13257 whole entry): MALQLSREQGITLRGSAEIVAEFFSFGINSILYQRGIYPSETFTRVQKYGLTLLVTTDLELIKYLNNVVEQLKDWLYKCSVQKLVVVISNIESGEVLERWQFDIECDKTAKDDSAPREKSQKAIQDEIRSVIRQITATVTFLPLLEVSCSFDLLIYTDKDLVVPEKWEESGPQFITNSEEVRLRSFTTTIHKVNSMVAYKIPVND

binding result: binds
B1: GST-Cdc20^N151 (first 151 amino acids of human Cdc20), wild type (domain or fragment)
chain: MAQFAFESDLHSLLQLDAPIPNAPPARWQRKAKEAAGPAPSPMRAANRSHSAGRTPGRTPGKSSSKVQTTPSKPGGDRYIPHRSAAQMEVASFLLSKENQPENSQTPTKKEHQKAWALNLNGFDVEEAKILRLSGKPQNAPEGYQNRLKVL

— publication PMC3461516 (The Journal of Cell Biology, 2012)
